Assay results published in article PMC8695382 (Nature, 2021).

Columns and labels:
Assay in all cases: cryo-EM structure; yeast replisome–SCF^Dia2 complexes assembled in the absence of DNA (off DNA); 3.9 Å
Conditions in all cases: both partners purified
Mcm3 = molecular target: T1, Mcm3 (Saccharomyces cerevisiae, UniProt P24279 1-971)
T1 construct: Mcm3, S. cerevisiae; Subunit of m2; source: purified as part of CMG

Mcm5 = molecular target: T2, Mcm5 (Saccharomyces cerevisiae, UniProt P29496 1-775)
T2 construct: Mcm5, S. cerevisiae; Subunit of m2; source: purified as part of CMG
T2 sequence: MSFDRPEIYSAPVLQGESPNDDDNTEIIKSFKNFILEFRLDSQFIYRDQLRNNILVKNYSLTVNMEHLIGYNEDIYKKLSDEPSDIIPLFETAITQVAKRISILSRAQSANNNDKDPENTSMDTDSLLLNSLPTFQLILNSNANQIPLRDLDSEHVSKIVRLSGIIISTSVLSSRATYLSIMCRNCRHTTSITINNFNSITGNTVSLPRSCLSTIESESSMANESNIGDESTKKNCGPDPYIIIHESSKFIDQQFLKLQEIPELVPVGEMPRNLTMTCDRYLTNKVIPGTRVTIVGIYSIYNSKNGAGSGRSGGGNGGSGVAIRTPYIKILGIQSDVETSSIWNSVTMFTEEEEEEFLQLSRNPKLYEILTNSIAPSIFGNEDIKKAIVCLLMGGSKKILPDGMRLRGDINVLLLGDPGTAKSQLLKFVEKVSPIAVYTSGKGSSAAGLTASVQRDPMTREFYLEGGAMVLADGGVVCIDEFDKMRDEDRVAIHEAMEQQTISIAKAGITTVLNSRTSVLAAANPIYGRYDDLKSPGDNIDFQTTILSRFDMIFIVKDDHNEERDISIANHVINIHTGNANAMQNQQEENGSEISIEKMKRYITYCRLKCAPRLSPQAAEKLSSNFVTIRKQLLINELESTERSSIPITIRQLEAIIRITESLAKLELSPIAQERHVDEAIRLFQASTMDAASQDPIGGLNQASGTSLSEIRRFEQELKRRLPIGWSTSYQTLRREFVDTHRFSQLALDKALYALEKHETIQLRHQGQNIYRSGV

Mcm7 = molecular target: T3, Mcm7 (Saccharomyces cerevisiae, UniProt P38132 1-845)
T3 construct: Mcm7, S. cerevisiae; Subunit of m2; source: purified as part of CMG
T3 sequence: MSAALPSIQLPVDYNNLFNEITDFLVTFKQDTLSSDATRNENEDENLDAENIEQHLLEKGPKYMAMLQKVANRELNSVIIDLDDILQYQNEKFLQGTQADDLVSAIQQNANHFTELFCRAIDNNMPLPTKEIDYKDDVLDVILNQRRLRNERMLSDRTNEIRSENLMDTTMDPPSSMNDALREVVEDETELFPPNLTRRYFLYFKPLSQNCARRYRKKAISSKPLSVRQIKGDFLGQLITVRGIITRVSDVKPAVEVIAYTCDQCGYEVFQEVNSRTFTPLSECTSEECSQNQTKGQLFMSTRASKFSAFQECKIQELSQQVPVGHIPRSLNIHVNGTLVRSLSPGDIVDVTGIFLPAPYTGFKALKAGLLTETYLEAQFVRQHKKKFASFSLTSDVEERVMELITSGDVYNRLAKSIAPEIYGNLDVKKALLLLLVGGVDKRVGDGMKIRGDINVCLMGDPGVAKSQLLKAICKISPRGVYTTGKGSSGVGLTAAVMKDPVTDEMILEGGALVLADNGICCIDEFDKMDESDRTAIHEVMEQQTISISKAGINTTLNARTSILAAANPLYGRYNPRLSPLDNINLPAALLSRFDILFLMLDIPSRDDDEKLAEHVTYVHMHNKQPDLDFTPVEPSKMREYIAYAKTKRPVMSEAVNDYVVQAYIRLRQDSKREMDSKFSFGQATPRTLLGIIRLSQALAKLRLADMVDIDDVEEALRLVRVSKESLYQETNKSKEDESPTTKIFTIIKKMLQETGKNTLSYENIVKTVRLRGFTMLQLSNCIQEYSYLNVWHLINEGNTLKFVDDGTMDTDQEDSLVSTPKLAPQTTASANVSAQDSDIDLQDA

Measured: binding result

T1 sequence (P24279 whole entry): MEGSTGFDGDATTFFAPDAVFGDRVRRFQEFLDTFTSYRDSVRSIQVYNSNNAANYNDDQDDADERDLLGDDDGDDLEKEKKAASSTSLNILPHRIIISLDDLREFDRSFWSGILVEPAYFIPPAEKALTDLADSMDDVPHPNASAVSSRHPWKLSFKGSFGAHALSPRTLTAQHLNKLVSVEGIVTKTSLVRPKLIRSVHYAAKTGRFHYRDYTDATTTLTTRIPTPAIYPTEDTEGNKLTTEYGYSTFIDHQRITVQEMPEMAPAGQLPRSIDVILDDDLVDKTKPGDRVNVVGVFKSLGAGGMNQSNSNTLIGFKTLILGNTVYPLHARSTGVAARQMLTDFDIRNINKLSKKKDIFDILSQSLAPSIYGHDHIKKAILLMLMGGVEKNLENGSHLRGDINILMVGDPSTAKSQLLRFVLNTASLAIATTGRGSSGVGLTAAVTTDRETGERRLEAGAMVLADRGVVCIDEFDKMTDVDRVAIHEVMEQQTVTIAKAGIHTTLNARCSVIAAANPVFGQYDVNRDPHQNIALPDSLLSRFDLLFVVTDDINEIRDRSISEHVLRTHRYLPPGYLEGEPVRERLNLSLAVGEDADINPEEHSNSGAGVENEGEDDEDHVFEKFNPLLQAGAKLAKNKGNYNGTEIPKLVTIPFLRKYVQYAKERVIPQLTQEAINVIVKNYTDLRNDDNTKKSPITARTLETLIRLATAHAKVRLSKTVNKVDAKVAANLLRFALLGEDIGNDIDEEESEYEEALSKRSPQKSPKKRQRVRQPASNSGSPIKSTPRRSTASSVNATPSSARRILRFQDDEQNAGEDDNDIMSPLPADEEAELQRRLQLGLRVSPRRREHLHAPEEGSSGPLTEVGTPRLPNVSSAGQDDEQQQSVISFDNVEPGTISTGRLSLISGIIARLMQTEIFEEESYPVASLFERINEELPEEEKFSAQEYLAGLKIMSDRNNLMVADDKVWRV

B1: Dia2 (natural protein, Saccharomyces cerevisiae)
chain: MSSPGNSGVAIDSTVLKAIELGTRLFKSGEYLQAKRIFTNALRVCDSYSQEQIMRIRNAYQLDTARPDNKRLYHPRYIKILDNICACYEKLNDLKSCLDVSQRLLKLEPGNIKCYIRCTRTLIKLKDWKRAYKTCSRGLQLCNNDSNHLRQQKQFIKNNMVQKQDGKRSYIDPLEETKIAKKKKNNNVLESLPKKKIKGSTKKTDLVGNLPIEILPIIFQRFTTKELVTLSLVCNKWRDKILYHLDCFQEFNLAPINFKNFVKFMDFLQQNFTRTYRKYILSQVKVSSRITSEELRITQLLFSKMPKCINIERLILSMPTLTTTQIFKLMVRGGTDFFTRLLELSLMITYRPDKQHELEILQTCPLLKKIELIFVNSLVPIFDGNNSVGRDGSFNVMARHTNMQISTADNDEQGIVEEKVIYSELEKITLICDKKKIKNFPLCRALLRGQFPLLQKLTITGVTFPMNNQDIMNFQWLLNFPDLKELWIEDNDNCELSKFLQLLKFSNVWKNLEKLTFRENKLYPIVNLDEDQPVTNDDEVPSMLFYKENLQNLEKLDLMGTSISGSALTRLCEQEYLDGRKLRSLNIGNCPNIQFPNNHAHTARMILDVNAVLKRLSKLEEINLSHLSSLNDSTMKSFIINVPFLENLKRLDISHNFEITGISIYEFLKKFQMDHDNEAGGQPLAYLNIDGCSQVSHITVNMIRAQNLVTQVDCVYERDVWRKFGINSYSYS
notes: Dia2, F-box protein, S. cerevisiae; model built for F-box (211–247), LRRs (248–716) and C-terminal tail (717–732); N-terminal TPR domain not visible; Subunit of m1 as it stands in the cryo-EM samples; also called Dia2^LRR (its leucine-rich repeat domain); source: purified as part of SCF^Dia2
binds: all assays above
